Key:
F-FGF21FL = F-FGF21FL (UniProt Q9NSA1); assay: BLI; Octet Red 96, 30°C, 1000 rpm; F-FGF21 proteins at 50 nM captured on AHC (anti-hIgG Fc capture) biosensors, βKlotho in running buffer at 0.2743-200 nM; global fit, 1:1 binding model, monovalent KD
F-FGF21∆N = F-FGF21∆N (UniProt Q9NSA1); assay: as above

## Human βKlotho (from UniProt Q86Z14 1-996) (receptor)
F-FGF21FL
  Kd: 10.1 nM
  koff: 0.00124 s⁻¹
  kon: 122000 M⁻¹ s⁻¹
F-FGF21∆N
  Kd: 11.8 nM
  koff: 0.00195 s⁻¹
  kon: 166000 M⁻¹ s⁻¹

— paper PMC10945505
